From patent EP0957164B1

Biological target: insulin (UniProt P01308)
Assay: PEG precipitation assay, A14-125I-insulin tracer displaced by unlabeled insulin, BHK medium

Chain of UniProt P01308 (P01308 90-110 limits assumed, chain 1 of 2): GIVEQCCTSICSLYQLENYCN
Chain of UniProt P01308 (P01308 25-54 limits assumed, chain 2 of 2): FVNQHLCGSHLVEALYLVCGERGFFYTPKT

Row | Substance | Kd
1 | IRΔ685 (receptor) | 6.4 nM
2 | IRΔ703 (receptor) | 4.4 nM

Further lines, results first:

Row | Kd | Substance
3 | 4.4 nM | IGFIR(Δ459-672).1-68, 704-729.IR (receptor)
4 | 2.1 nM | IGFIR(Δ459-672).1-68IR (receptor)
5 | 1.1 nM | IRΔ673 (receptor)
